Assay results taken from US20140348865A1, “[…] ON AN HIV-1 V1V2 SITE-OF-VULNERABILITY” (The United States of America, as represented by the …, priority 2011, published 2014).

How the values were obtained:
[1] = target: Env of HIV-1 strain CNE56 (pseudovirus) (HIV-1)
[2] = target: Env of HIV-1 strain QH209 (pseudovirus) (HIV-1)
[3] = target: Env of HIV-1 strain CNE56 (pseudovirus) (HIV-1); remark: listed apart in the source
[4] = target: Env of HIV-1 strain QH209 (pseudovirus) (HIV-1); remark: listed apart in the source
[5] = target: Env of HIV-1 strain 0439 (pseudovirus) (HIV-1)
[6] = target: Env of HIV-1 strain 398 (pseudovirus) (HIV-1)
epitope-scaffold 2ZJR_B = assay: ELISA, antibody dilution series on the scaffold

In the case of monoclonal antibody PG16, the neutralization IC80 (Q259.17 (HIV-1)) is reported as 0.717 µg/mL, the neutralization IC80 (CNE55 (HIV-1)) is reported as > 50 µg/mL and the neutralization IC80 (MI369.A5 (HIV-1)) is reported as 0.082 µg/mL. The neutralization IC80 (3468_V1_C12 (HIV-1)) was > 50 µg/mL, the neutralization IC80 (KNH1209.18 (HIV-1)) was > 50 µg/mL and the neutralization IC80 (Q842.d12 (HIV-1)) was 0.006 µg/mL. For the same substance, the neutralization IC80 [1] was > 50 µg/mL, the neutralization IC80 (BB539.2B13 (HIV-1)) was 0.062 µg/mL and the neutralization IC80 (6540.v4.c1 (HIV-1)) was 0.154 µg/mL. The neutralization IC80 (Q769.h5 (HIV-1)) was 0.02 µg/mL, the neutralization IC80 (0260.v5.c36 (HIV-1)) was > 50 µg/mL and the neutralization IC80 [2] was > 50 µg/mL. It also gave a neutralization IC80 (C3347.c11 (HIV-1)) of 0.031 µg/mL, a neutralization IC80 (M02138 (HIV-1)) of 0.81 µg/mL and a neutralization IC80 (Q23.17 (HIV-1)) of 0.004 µg/mL. The neutralization IC80 (CNE5 (HIV-1)) was < 0.023 µg/mL, the neutralization IC80 (Q769.d22 (HIV-1)) was 11 µg/mL and the neutralization IC80 (CNE59 (HIV-1)) was > 50 µg/mL. It also gave a neutralization IC80 (BI369.9A (HIV-1)) of 0.037 µg/mL, a neutralization IC50 (3468_V1_C12) of 2.38 µg/mL and a neutralization IC50 (M02138) of 0.022 µg/mL. The neutralization IC50 (620345.c1) was > 50 µg/mL, the neutralization IC50 (R2184.c4) was 0.28 µg/mL and the neutralization IC50 (Q23.17) was 0.002 µg/mL. For the same substance, the neutralization IC50 (KER2018.11) was < 0.0006 µg/mL, the neutralization IC50 (Q461.e2) was 4.11 µg/mL and the neutralization IC50 (3718.v3.c11) was 0.019 µg/mL. It also gave a neutralization IC50 (Q769.d22) of 0.01 µg/mL, a neutralization IC50 (C2101.c1) of 0.009 µg/mL and a neutralization IC50 (0260.v5.c36) of 2.1 µg/mL. For the same substance, the neutralization IC50 (6545_V4_C1) was 0.068 µg/mL, the neutralization IC50 (Q769.h5) was 0.002 µg/mL and the neutralization IC50 (CNE5) was < 0.023 µg/mL. The neutralization IC50 (UG037.8) was 0.001 µg/mL, the neutralization IC50 (MS208.A1) was 0.047 µg/mL and the neutralization IC50 (Q259.17) was 0.028 µg/mL. The neutralization IC50 (0815_V3_C3) was > 50 µg/mL, the neutralization IC50 (C3347.c11) was 0.006 µg/mL and the neutralization IC50 (MB201.A1) was 0.001 µg/mL. The neutralization IC50 (6095_V1_C10) was < 0.023 µg/mL, the neutralization IC50 (CNE55) was 1.37 µg/mL and the neutralization IC50 (TH976.17) was > 50 µg/mL. For the same substance, the neutralization IC50 (BB539.2B13) was 0.012 µg/mL, the neutralization IC50 [3] was > 50 µg/mL and the neutralization IC50 (3589_V1_C4) was 0.728 µg/mL. For the same substance, the neutralization IC50 (BS208.B1) was 0.004 µg/mL, the neutralization IC50 (Q842.d12) was 0.001 µg/mL and the neutralization IC50 (RW020.2) was 0.07 µg/mL. For the same substance, the neutralization IC50 (TH966.8) was 0.008 µg/mL, the neutralization IC50 (BB201.B42) was 0.003 µg/mL and the neutralization IC50 [4] was > 50 µg/mL. For the same substance, the neutralization IC50 (3301_V1_C24) was < 0.023 µg/mL, the neutralization IC50 (6540.v4.c1) was 0.017 µg/mL and the neutralization IC50 (CNE59) was 0.113 µg/mL. The neutralization IC50 (R3265.c6) was 0.036 µg/mL, the neutralization IC50 (MB539.2B7) was 0.025 µg/mL and the neutralization IC50 (C1080.c3) was 0.001 µg/mL. The neutralization IC50 (R1166.c1) was 0.587 µg/mL, the neutralization IC50 (BI369.9A) was 0.007 µg/mL and the neutralization IC50 (0330.v4.c3) was 0.006 µg/mL. For the same substance, the neutralization IC50 (3415.v1.c1) was 0.036 µg/mL, the neutralization IC50 (KER2008.12) was 0.006 µg/mL and the neutralization IC50 (Q168.a2) was 0.031 µg/mL. The neutralization IC50 (MI369.A5) was 0.011 µg/mL, the neutralization IC50 [5] was > 50 µg/mL and the neutralization IC50 (C4118.09) was 0.021 µg/mL. The neutralization IC50 [6] was > 50 µg/mL, the neutralization IC50 (CNE3) was 0.173 µg/mL and the neutralization IC50 (KNH1209.18) was 0.678 µg/mL. For the same substance, the EC50 (read off the curve) (epitope-scaffold 2ZJR_B) was 1 µg/mL.
Work on monoclonal antibody PG9 yielded a neutralization IC80 (Q259.17 (HIV-1)) of 0.229 µg/mL, a neutralization IC80 (CNE55 (HIV-1)) of 1.32 µg/mL and a neutralization IC80 (MI369.A5 (HIV-1)) of 0.364 µg/mL. For the same substance, the neutralization IC80 (3468_V1_C12 (HIV-1)) was > 50 µg/mL, the neutralization IC80 (KNH1209.18 (HIV-1)) was > 50 µg/mL and the neutralization IC80 (Q842.d12 (HIV-1)) was 0.021 µg/mL. The neutralization IC80 [1] was > 50 µg/mL, the neutralization IC80 (BB539.2B13 (HIV-1)) was 0.422 µg/mL and the neutralization IC80 (6540.v4.c1 (HIV-1)) was 0.213 µg/mL. For the same substance, the neutralization IC80 (Q769.h5 (HIV-1)) was 0.007 µg/mL, the neutralization IC80 (0260.v5.c36 (HIV-1)) was 22.8 µg/mL and the neutralization IC80 [2] was > 50 µg/mL. The neutralization IC80 (C3347.c11 (HIV-1)) was 0.168 µg/mL, the neutralization IC80 (M02138 (HIV-1)) was 1.36 µg/mL and the neutralization IC80 (Q23.17 (HIV-1)) was 0.02 µg/mL. The neutralization IC80 (CNE5 (HIV-1)) was < 0.023 µg/mL, the neutralization IC80 (Q769.d22 (HIV-1)) was 0.033 µg/mL and the neutralization IC80 (CNE59 (HIV-1)) was 0.465 µg/mL. It also gave a neutralization IC80 (BI369.9A (HIV-1)) of 0.151 µg/mL, a neutralization IC50 (3468_V1_C12) of 2.09 µg/mL and a neutralization IC50 (M02138) of 0.122 µg/mL. For the same substance, the neutralization IC50 (620345.c1) was 0.393 µg/mL, the neutralization IC50 (R2184.c4) was 0.2 µg/mL and the neutralization IC50 (Q23.17) was 0.007 µg/mL. For the same substance, the neutralization IC50 (KER2018.11) was 0.001 µg/mL, the neutralization IC50 (Q461.e2) was 3.01 µg/mL and the neutralization IC50 (3718.v3.c11) was 0.05 µg/mL. It also gave a neutralization IC50 (Q769.d22) of 0.007 µg/mL, a neutralization IC50 (C2101.c1) of 0.026 µg/mL and a neutralization IC50 (0260.v5.c36) of 2.18 µg/mL. For the same substance, the neutralization IC50 (6545_V4_C1) was 0.095 µg/mL, the neutralization IC50 (Q769.h5) was 0.002 µg/mL and the neutralization IC50 (CNE5) was < 0.023 µg/mL. The neutralization IC50 (UG037.8) was 0.021 µg/mL, the neutralization IC50 (MS208.A1) was 0.071 µg/mL and the neutralization IC50 (Q259.17) was 0.045 µg/mL. The neutralization IC50 (0815_V3_C3) was > 50 µg/mL, the neutralization IC50 (C3347.c11) was 0.038 µg/mL and the neutralization IC50 (MB201.A1) was 0.024 µg/mL. For the same substance, the neutralization IC50 (6095_V1_C10) was 0.242 µg/mL, the neutralization IC50 (CNE55) was 0.146 µg/mL and the neutralization IC50 (TH976.17) was > 50 µg/mL. For the same substance, the neutralization IC50 (BB539.2B13) was 0.106 µg/mL, the neutralization IC50 [3] was > 50 µg/mL and the neutralization IC50 (3589_V1_C4) was 0.025 µg/mL. It also gave a neutralization IC50 (BS208.B1) of 0.031 µg/mL, a neutralization IC50 (Q842.d12) of 0.005 µg/mL and a neutralization IC50 (RW020.2) of 0.103 µg/mL. The neutralization IC50 (TH966.8) was 0.042 µg/mL, the neutralization IC50 (BB201.B42) was 0.014 µg/mL and the neutralization IC50 [4] was > 50 µg/mL. For the same substance, the neutralization IC50 (3301_V1_C24) was 0.281 µg/mL, the neutralization IC50 (6540.v4.c1) was 0.035 µg/mL and the neutralization IC50 (CNE59) was 0.091 µg/mL. The neutralization IC50 (R3265.c6) was 1.3 µg/mL, the neutralization IC50 (MB539.2B7) was 0.058 µg/mL and the neutralization IC50 (C1080.c3) was 0.004 µg/mL. The neutralization IC50 (R1166.c1) was 1.55 µg/mL, the neutralization IC50 (BI369.9A) was 0.029 µg/mL and the neutralization IC50 (0330.v4.c3) was 0.018 µg/mL. For the same substance, the neutralization IC50 (3415.v1.c1) was 0.149 µg/mL, the neutralization IC50 (KER2008.12) was 0.017 µg/mL and the neutralization IC50 (Q168.a2) was 0.106 µg/mL. The neutralization IC50 (MI369.A5) was 0.058 µg/mL, the neutralization IC50 [5] was > 50 µg/mL and the neutralization IC50 (C4118.09) was 0.037 µg/mL. The neutralization IC50 [6] was > 50 µg/mL, the neutralization IC50 (CNE3) was 0.079 µg/mL and the neutralization IC50 (KNH1209.18) was 0.367 µg/mL. For the same substance, the EC50 (read off the curve) (epitope-scaffold 2ZJR_B) was 0.1 µg/mL.
